US20240382633A1, “RADIOPHARMACEUTICALS, METHODS FOR THE PRODUCTION THEREOF, AND USES IN TREATMENT, DIAGNOSIS AND IMAGING DISEASES” (priority 2021, published 2024)

Assays:
in vivo = assay: in vivo; parameters: species or system Balb/c nude mice; conditions: male, Balb/c nude, mouse, iv, total radioactivity, Percentage of injected dose
Description: (§1) Healthy male Balb/c nude mice (˜18 g) from 8 weeks old were obtained from the ARC and used for this study. Mice were imported into the CAI animal holding facility and monitored for 1 week prior to the study in order to acclimatize to the environment prior to injection of cells. All animals were provided with free access to food and water before and during the imaging experiments which were approved by the University of Queensland Animal Ethics Committee (Approval #AIBN/CAI/105/19/ARC/NHMRC).
(§2) 8-week-old male Balb/c nude mice were injected (27G needle) subcutaneously with PC3 ([…]) cells in 50 μL of 50:50 matrigel and cells in phosphate buffered saline into the right flank of each mouse. There was no evidence of ulceration at the time of dosing; the animals were closely monitored and remained in good condition apart from the growth of tumours. […] Labelled peptides were injected via the tail vein (29G needle; ˜2-3 MBq) and then mice were imaged using the Siemens Inveon PET-CT instrument at the various time points.
(§3) Organs were excised at 24 hours, with the percentage of injected dose of the administered compound determined by ex vivo gamma counting (Table 1, FIG. 5). Values are averages across 4 mice.

[1] = Stability of aqueous formulation (radiochemical purity over time); assay type: physicochemical; conditions: up to 48 hours post End of Synthesis, 3 validation batches
Experimental: Product stability was monitored up to 48 hours post End of Synthesis (EOS) for 3 validation batches of [^64Cu]Formula (Ib) in an aqueous formulation prepared as outlined above. Due to time restrictions, identical stability sampling time points were not always achievable. […] This is attributed to radioactive decay reducing the peak area of radiolytic impurities to below detectable limits, rather than a true increase in the radiochemical purity.

PC3 tumours = assay: in vivo; parameters: species or system Balb/c nude mice; conditions: mouse
Description: as §1, §2, §3

## CC(C)C[C@H](NC(=O)C[C@H](O)[C@H](CC(C)C)NC(=O)[C@H](Cc1c[nH]cn1)NC(=O)CNC(=O)[C@@H](NC(=O)[C@H](C)NC(=O)[C@H](Cc1c[nH]c2ccccc12)NC(=O)[C@H](CCC(N)=O)NC(=O)[C@@H](Cc1ccccc1)NC(=O)CCOCCOCCOCCOCCNC(=O)CCCC(=O)NC12CNCCNCC(C)(CNCCNC1)CNCCNC2)C(C)C)C(N)=O [[^64Cu]Formula (Ib), metal not drawn]
In vivo; Blood
  tissue uptake at 24 h: 0.13 ± 0.04 %ID/g
In vivo; GI Tract
  tissue uptake at 24 h: 0.3 ± 0.07 %ID/g
In vivo; Heart
  tissue uptake at 24 h: 0.24 ± 0.02 %ID/g
In vivo; Kidneys
  tissue uptake at 24 h: 3.55 ± 0.79 %ID/g
In vivo; Liver
  tissue uptake at 24 h: 1.52 ± 0.18 %ID/g
In vivo; Lungs
  tissue uptake at 24 h: 0.31 ± 0.08 %ID/g
In vivo; Pancreas
  tissue uptake at 24 h: 0.23 ± 0.02 %ID/g
In vivo; Spleen
  tissue uptake at 24 h: 0.38 ± 0.06 %ID/g
In vivo; Tail
  tissue uptake at 24 h: 0.56 ± 0.87 %ID/g
In vivo; Tumour
  tissue uptake at 24 h: 4.09 ± 0.52 %ID/g
[1]
  radiochemical purity (stability): ≥ 92.4%

## CC(C)C[C@H](NC(=O)C[C@H](O)[C@H](CC(C)C)NC(=O)[C@H](Cc1c[nH]cn1)NC(=O)CNC(=O)[C@@H](NC(=O)[C@H](C)NC(=O)[C@H](Cc1c[nH]c2ccccc12)NC(=O)[C@H](CCC(N)=O)NC(=O)[C@@H](Cc1ccccc1)NC(=O)CCOCCOCCOCCOCCNC(=O)CCCC(=O)NC12CNCCNCC(NC(=O)CCCC(=O)NCCOCCOCCOCCOCCC(=O)N[C@H](Cc3ccccc3)C(=O)N[C@@H](CCC(N)=O)C(=O)N[C@@H](Cc3c[nH]c4ccccc34)C(=O)N[C@@H](C)C(=O)N[C@H](C(=O)NCC(=O)N[C@@H](Cc3c[nH]cn3)C(=O)N[C@@H](CC(C)C)[C@@H](O)CC(=O)N[C@@H](CC(C)C)C(N)=O)C(C)C)(CNCCNC1)CNCCNC2)C(C)C)C(N)=O [[^64Cu]Formula (Ia), metal not drawn]
In vivo; Blood
  tissue uptake at 24 h: 0.1 ± 0.05 %ID/g
In vivo; GI Tract
  tissue uptake at 24 h: 0.44 ± 0.04 %ID/g
In vivo; Heart
  tissue uptake at 24 h: 0.21 ± 0.03 %ID/g
In vivo; Kidneys
  tissue uptake at 24 h: 6.81 ± 0.67 %ID/g
In vivo; Liver
  tissue uptake at 24 h: 16.8 ± 1.55 %ID/g
In vivo; Lungs
  tissue uptake at 24 h: 0.36 ± 0.12 %ID/g
In vivo; Pancreas
  tissue uptake at 24 h: 0.84 ± 0.06 %ID/g
In vivo; Spleen
  tissue uptake at 24 h: 1.47 ± 0.2 %ID/g
In vivo; Tumour
  tissue uptake at 24 h: 2.13 ± 0.86 %ID/g
PC3 tumours
  Percentage of injected dose, Tail: 0.28 0.05 % ID/g
